To fix the notation:
B1: Copu9 (Coniophora puteana RWD-64-598 SS2; N228A) (protein)
chain: MSPTATFTTTSSEENAPTKFILPDLVSDCTYPLLLNDNCEPVARASEQWLIAGARLQEPRRTKFMGLLAGELTAACYPHADASHLRVCVDFMNWLFNMDDWLDDFDVDDTWGMRHCCLGAFRDPVGFETDKLGGLMSKSFFSRFRQDGGPGCTERFIHTMDLFFIAVAQQAGDRANGITPDLESYITVRRDTSGCKPCFALIEYAAGIDLPDHVIYHPTLAAMEEATADLVTWSNDIFSYNKEQVTDDTHNMIPVLMRERGLDLQGAVDFVGRLCKGTIERFETERARLPSWGPELDAQVQTYIEGLQNWIVGSLHWSFDSHRYFGKDGHAVKKHRIVKLLPKRVPQQA
notes: full-length, codon-optimized, N-terminal hexa-His tag (pET-M11), expressed in E. coli BL21 RIL DE3; homodimer; 13 N-terminal residues not visible in crystal
B2: Copu9 (Coniophora puteana RWD-64-598 SS2; S314N) (protein)
chain: B1 chain with A228N, S314N
notes: as for B1
B3: Copu9 (Coniophora puteana RWD-64-598 SS2; C195V) (protein)
chain: B1 chain with C195V, A228N
notes: as for B1
B4: Copu9 (Coniophora puteana RWD-64-598 SS2; T192N) (protein)
chain: B1 chain with T192N, A228N
notes: as for B1
B5: Copu9 (Coniophora puteana RWD-64-598 SS2; P197C) (protein)
chain: B1 chain with P197C, A228N
notes: as for B1
B6: Copu9 (Coniophora puteana RWD-64-598 SS2; C76V) (protein)
chain: B1 chain with C76V, A228N
notes: as for B1
B7: Copu9 (Coniophora puteana RWD-64-598 SS2; G194A) (protein)
chain: B1 chain with G194A, A228N
notes: as for B1
B8: Copu9 (Coniophora puteana RWD-64-598 SS2; T73C) (protein)
chain: B1 chain with T73C, A228N
notes: as for B1
B9: Copu9 (Coniophora puteana RWD-64-598 SS2) (protein)
chain: B1 chain with A228N
notes: as for B1
B10: Copu9, (+)-δ-cadinol synthase from Coniophora puteana (enzyme, UniProt A0A5M3MXY8 1-349, looked up)
chain: B1 chain with A228N
notes: Copu9, sesquiterpene synthase ((+)-δ-cadinol synthase) of Coniophora puteana, XP_007765560; codon-optimised open reading frame; the crystal structure is complete except for the 13 N-terminal residues; no removal of the tag is described; Crystallised with three Mg2+ ions and alendronate (AHD); also called Copu9 WT; Copu9·Mg3·AHD; source: E. coli BL21 RIL DE3, purified (Ni2+-NTA, size exclusion …)

For orientation: Km means the substrate concentration at which the rate is half of its maximum. In general, kcat refers to the maximal rate divided by the concentration of active sites. As usually defined, the kcat/Km is the second-order rate constant that governs catalysis at low substrate concentration. For orientation: stoichiometry N means a count of units in the complex or per binding partner.

Positions count from the first letter of the chain named. In names and notes the source's numbering stands.

The target of the first data set is T1, Copu5 (Coniophora puteana, UniProt A0A5M3MX24).
T1 construct: full-length, codon-optimized, N-terminal hexa-His tag (pET-M11) for thermal shift, expressed in E. coli BL21 RIL DE3; purified in pyrophosphate-containing buffer; pACYC-based operon in E. coli HMS174 (DE3) for terpene production
T1 sequence (A0A5M3MX24 entry or part of it): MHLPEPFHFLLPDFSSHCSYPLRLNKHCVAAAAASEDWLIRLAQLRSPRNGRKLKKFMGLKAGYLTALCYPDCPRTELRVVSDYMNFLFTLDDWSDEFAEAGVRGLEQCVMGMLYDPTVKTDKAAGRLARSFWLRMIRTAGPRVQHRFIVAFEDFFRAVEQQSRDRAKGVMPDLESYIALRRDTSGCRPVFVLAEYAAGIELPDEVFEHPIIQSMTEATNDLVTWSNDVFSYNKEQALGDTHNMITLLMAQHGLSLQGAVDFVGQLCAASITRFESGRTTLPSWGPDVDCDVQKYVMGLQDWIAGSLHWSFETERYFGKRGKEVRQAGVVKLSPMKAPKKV
The experiment in a line: sesquiterpene production in E. coli, GC-MS and NMR of product. As to conditions: E. coli HMS174 (DE3) with DXS and IDI co-expression, endogenous FPP; product (+)-δ-cadinol. The format is cell-based.
For `CC(C)=CCC/C(C)=C/CC/C(C)=C/COP(=O)(O)OP(=O)(O)O` [FPP], the “sesquiterpene production in E. coli, GC-MS and NMR of product” value is on record as “catalyze the formation of (+)-δ-cadinol as main product from its direct precursor FPP”.

Substrate in a further data set: CC(C)=CCC/C(C)=C/CC/C(C)=C/CO[P@@](=O)(O)OP(=O)(O)O
The data set can be described thus: purified protein. The format is biochemical, Coniophora puteana. As to conditions: 25 °C, FPP 0-70 µM in methanol, 0.8–1.2 µM enzyme.
With B1, the Km stood at 4.42 ± 0.59 µM, the kcat amounted to 0.0262 ± 0.0007 s⁻¹ and the catalytic efficiency (kcat/Km) is 5940 M⁻¹ s⁻¹.

On to B2, for which the Km turned out to be 5.10 ± 0.54 µM, the kcat was 0.0192 ± 0.0005 s⁻¹ and the kcat/Km was found to be 3760 M⁻¹ s⁻¹.

For B3, the Km amounted to 8.48 ± 0.51 µM, the catalytic constant (kcat) worked out at 0.0398 ± 0.0007 s⁻¹ and the kcat/Km was found to be 4690 M⁻¹ s⁻¹.

In the case of B4, the Km was 8.28 ± 0.60 µM, the kcat was found to be 0.0396 ± 0.0008 s⁻¹ and the kcat/Km came to 4780 M⁻¹ s⁻¹.

For the molecule B5, the Km is recorded as 6.82 ± 0.77 µM, the kcat stood at 0.0381 ± 0.001 s⁻¹ and the kcat/Km worked out at 5580 M⁻¹ s⁻¹.

On to B6, for which the Km amounted to 3.14 ± 0.45 µM, the kcat worked out at 0.0291 ± 0.0007 s⁻¹ and the kcat/Km stood at 9250 M⁻¹ s⁻¹.

For B7, the Km worked out at 7.00 ± 0.37 µM, the kcat was determined as 0.036 ± 0.0005 s⁻¹ and the kcat/Km was 5140 M⁻¹ s⁻¹.

With B8, the Km was determined as 6.28 ± 1.37 µM, the kcat amounted to 0.0502 ± 0.0026 s⁻¹ and the kcat/Km is 8000 M⁻¹ s⁻¹.

As for B9, the Km amounted to 4.59 ± 0.17 µM, the turnover number (kcat) is 0.0324 ± 0.0003 s⁻¹ and the kcat/Km came to 7070 M⁻¹ s⁻¹.

The next data set deals with the molecule itself. The experiment in a line: SEC; HighLoad Superdex S200 16/60; 20 mM Tris/HCl pH 7.5, 150 mM NaCl, 5 mM MgCl2; calibrated with a high molecular weight standard.
Conditions: not given
For B10, the “stoichiometry N” value is 2.
